Results taken from PMC5309844, “PDI regulates seizure activity via NMDA receptor redox in rats” (Scientific Reports, 2017).

Assays:
[1] = target: T1, NMDA receptor NR2A subunit (rat (endogenous in hippocampus), UniProt Q00959 23-1464); test: co-IP; rat hippocampal tissue lysed in RIPA buffer; equal amounts of total protein precipitated with the appropriate primary antibodies and protein G sepharose at 4 °C overnight; Western blot; normal, chronic epileptic, and control siRNA- or PDI siRNA-infused epileptic animals; details: partners not purified
T1 construct: NR2A subunit of the N-methyl-D-aspartate receptor, rat, endogenous in the hippocampus; source: endogenous, rat hippocampal tissue lysate (RIPA buffer)
T1 sequence (Q00959 23-1464): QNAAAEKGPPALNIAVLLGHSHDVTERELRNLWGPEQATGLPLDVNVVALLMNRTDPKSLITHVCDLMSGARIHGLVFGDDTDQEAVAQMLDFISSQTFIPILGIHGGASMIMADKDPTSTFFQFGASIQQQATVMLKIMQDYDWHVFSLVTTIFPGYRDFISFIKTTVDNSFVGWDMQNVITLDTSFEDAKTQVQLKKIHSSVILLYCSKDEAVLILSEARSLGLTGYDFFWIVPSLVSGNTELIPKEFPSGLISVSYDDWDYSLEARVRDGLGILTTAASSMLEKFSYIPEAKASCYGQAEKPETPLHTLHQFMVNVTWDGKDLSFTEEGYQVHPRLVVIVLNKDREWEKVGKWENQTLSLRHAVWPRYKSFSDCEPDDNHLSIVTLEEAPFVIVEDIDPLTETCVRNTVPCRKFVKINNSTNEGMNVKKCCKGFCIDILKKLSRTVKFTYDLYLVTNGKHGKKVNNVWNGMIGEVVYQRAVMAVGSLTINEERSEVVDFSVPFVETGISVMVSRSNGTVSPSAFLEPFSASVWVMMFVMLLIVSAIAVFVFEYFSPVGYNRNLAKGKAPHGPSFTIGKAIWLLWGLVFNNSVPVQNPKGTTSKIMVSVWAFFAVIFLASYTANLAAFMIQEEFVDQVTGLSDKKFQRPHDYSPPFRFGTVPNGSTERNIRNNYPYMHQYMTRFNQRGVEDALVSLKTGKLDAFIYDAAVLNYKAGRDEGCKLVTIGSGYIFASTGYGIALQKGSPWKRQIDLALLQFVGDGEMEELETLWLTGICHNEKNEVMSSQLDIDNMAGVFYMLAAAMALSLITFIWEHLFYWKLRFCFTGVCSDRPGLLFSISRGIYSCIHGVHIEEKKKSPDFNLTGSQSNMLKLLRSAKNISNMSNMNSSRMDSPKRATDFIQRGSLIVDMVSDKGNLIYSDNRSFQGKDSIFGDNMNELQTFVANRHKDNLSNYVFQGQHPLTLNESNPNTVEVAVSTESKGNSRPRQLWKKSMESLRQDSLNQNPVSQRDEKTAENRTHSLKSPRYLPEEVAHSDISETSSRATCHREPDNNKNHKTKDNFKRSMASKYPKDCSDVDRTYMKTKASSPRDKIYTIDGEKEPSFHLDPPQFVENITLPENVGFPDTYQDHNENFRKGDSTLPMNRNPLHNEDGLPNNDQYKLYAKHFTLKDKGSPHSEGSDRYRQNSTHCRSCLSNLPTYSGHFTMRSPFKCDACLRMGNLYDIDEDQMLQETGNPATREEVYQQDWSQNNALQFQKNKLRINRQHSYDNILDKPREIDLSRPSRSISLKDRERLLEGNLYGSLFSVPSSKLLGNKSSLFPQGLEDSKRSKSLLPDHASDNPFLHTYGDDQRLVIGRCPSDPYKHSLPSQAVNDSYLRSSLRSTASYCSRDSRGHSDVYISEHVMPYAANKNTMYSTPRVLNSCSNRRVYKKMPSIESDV

[2] = target: T2, NMDA receptor NR1 subunit (rat (endogenous in hippocampus), UniProt P35439 19-938); test: as above; details: partners not purified
T2 construct: NR1 subunit of the N-methyl-D-aspartate receptor, rat, endogenous in the hippocampus; source: endogenous, rat hippocampal tissue lysate (RIPA buffer)

B1: Protein disulfide isomerase (enzyme, rat (endogenous in hippocampus), UniProt P04785 20-509, looked up)
chain: DALEEEDNVLVLKKSNFAEALAAHNYLLVEFYAPWCGHCKALAPEYAKAAAKLKAEGSEIRLAKVDATEESDLAQQYGVRGYPTIKFFKNGDTASPKEYTAGREADDIVNWLKKRTGPAATTLSDTAAAESLVDSSEVTVIGFFKDAGSDSAKQFLLAAEAVDDIPFGITSNSDVFSKYQLDKDGVVLFKKFDEGRNNFEGEITKEKLLDFIKHNQLPLVIEFTEQTAPKIFGGEIKTHILLFLPKSVSDYDGKLSNFKKAAEGFKGKILFIFIDSDHTDNQRILEFFGLKKEECPAVRLITLEEEMTKYKPESDELTAEKITQFCHHFLEGKIKPHLMSQELPEDWDKQPVKVLVGKNFEEVAFDEKKNVFVEFYAPWCGHCKQLAPIWDKLGETYKDHENIVIAKMDSTANEVEAVKVHSFPTLKFFPASADRTVIDYNGERTLDGFKKFLESGGQDGAGDNDDLDLEEALEPDMEEDDDQKAVKDEL
notes: Protein disulfide isomerase (PDI), rat, endogenous in the hippocampus of Sprague-Dawley rats; also called PDI; source: endogenous, rat hippocampal tissue lysate (RIPA buffer)
fold of co-precipitation in epileptic against normal animals [1]: ~2.4 fold | fold of co-precipitation in epileptic against normal animals [2]: ~2.4 fold
